Laboratory results published in the supplement of paper PMC9112550, “Optimization of the antimicrobial peptide Bac7 by deep mutational scanning” (BMC Biology, 2022).

System: Escherichia coli TOP10
Assay: shrunken log2 fold change of peptide-encoding DNA abundance (4.5 h post-induction vs induction); higher = less antimicrobial activity (less host growth inhibition)
Conditions: time post-induction: 4.5 h; library: site-saturation at positions 5, 18, 19, 20
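Also: peptides expressed intracellularly from a pBAD plasmid library in pooled LB shake-flask culture, induced with 0.3% L-arabinose, DNA abundance read by NGS, three biological replicates, DESeq2 with apeglm shrinkage.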

| Sequence | shrunken log2 fold change |
| --- | --- |
| RRIRCRPPRLPRPRPRPAKIPRP | -0.361 |
| RRIRERPPRLPRPRPRPSNVPRP | -0.441 |
| RRIRARPPRLPRPRPRPSCQPRP | 0.133 |
| RRIRRRPPRLPRPRPRPMSWPRP | 0.0104 |
| RRIRARPPRLPRPRPRPITEPRP | -0.38 |
| RRIRMRPPRLPRPRPRPHRYPRP | -0.144 |
| RRIRHRPPRLPRPRPRPICNPRP | -0.422 |
| RRIRERPPRLPRPRPRPCRVPRP | -0.25 |
| RRIRIRPPRLPRPRPRPMPCPRP | 0.00854 |
| RRIRKRPPRLPRPRPRPTYCPRP | 0.135 |
| RRIRARPPRLPRPRPRPHIDPRP | 0.205 |
| RRIRWRPPRLPRPRPRPDDTPRP | 0.222 |
| RRIRCRPPRLPRPRPRPIIVPRP | -0.425 |
| RRIRNRPPRLPRPRPRPQPIPRP | 0.14 |
| RRIRMRPPRLPRPRPRPKYEPRP | 0.741 |
| RRIRFRPPRLPRPRPRPCNQPRP | -0.649 |
| RRIRDRPPRLPRPRPRPFHWPRP | -0.0944 |
| RRIRYRPPRLPRPRPRPYHDPRP | -0.386 |
| RRIRMRPPRLPRPRPRPALAPRP | 1.08 |
| RRIRDRPPRLPRPRPRPGKYPRP | -0.124 |
| RRIRTRPPRLPRPRPRPTPQPRP | 0.241 |
| RRIRNRPPRLPRPRPRPACHPRP | 0.152 |
| RRIRARPPRLPRPRPRPSRHPRP | -0.00582 |
| RRIRLRPPRLPRPRPRPPQYPRP | -0.0075 |
| RRIRERPPRLPRPRPRPLFEPRP | -0.0266 |

| Sequence | shrunken log2 fold change |
| --- | --- |
| RRIRQRPPRLPRPRPRPHQIPRP | 0.0211 |
| RRIRERPPRLPRPRPRPPTGPRP | 0.161 |
| RRIRQRPPRLPRPRPRPHCGPRP | 0.0588 |
| RRIRVRPPRLPRPRPRPTDKPRP | -0.0288 |
| RRIRMRPPRLPRPRPRPLCSPRP | -0.0295 |
| RRIRRRPPRLPRPRPRPWTLPRP | -0.195 |
| RRIRQRPPRLPRPRPRPEPAPRP | 0.789 |
| RRIRLRPPRLPRPRPRPRFKPRP | 0.0114 |
| RRIRQRPPRLPRPRPRPPFHPRP | 0.102 |
| RRIRIRPPRLPRPRPRPREWPRP | 0.0237 |
| RRIRYRPPRLPRPRPRPKFHPRP | -1.15 |
| RRIRDRPPRLPRPRPRPLKMPRP | 0.122 |
| RRIRNRPPRLPRPRPRPVQSPRP | 0.00489 |
| RRIRCRPPRLPRPRPRPWSDPRP | -0.324 |
| RRIRRRPPRLPRPRPRPIWSPRP | -0.000832 |
| RRIRSRPPRLPRPRPRPLEIPRP | 0.11 |
| RRIRARPPRLPRPRPRPITRPRP | 0.00663 |
| RRIRFRPPRLPRPRPRPDIWPRP | -0.273 |
| RRIRTRPPRLPRPRPRPFKAPRP | 0.0168 |
| RRIRGRPPRLPRPRPRPMDDPRP | 0.994 |
| RRIRVRPPRLPRPRPRPEDQPRP | 0.0356 |
| RRIRYRPPRLPRPRPRPGCRPRP | -0.0618 |
| RRIRGRPPRLPRPRPRPPLEPRP | 1.2 |
| RRIRIRPPRLPRPRPRPKCRPRP | -0.452 |
| RRIRNRPPRLPRPRPRPHQHPRP | -0.654 |

| Sequence | shrunken log2 fold change |
| --- | --- |
| RRIRQRPPRLPRPRPRPWDRPRP | -0.127 |
| RRIRRRPPRLPRPRPRPTQDPRP | 1.87 |
| RRIRWRPPRLPRPRPRPMQPPRP | 0.185 |
| RRIRGRPPRLPRPRPRPENIPRP | 0.204 |
| RRIRFRPPRLPRPRPRPDMSPRP | -0.0802 |
| RRIRFRPPRLPRPRPRPWNIPRP | -0.0965 |
| RRIRCRPPRLPRPRPRPEFNPRP | -0.0266 |
| RRIRQRPPRLPRPRPRPCKVPRP | -0.101 |
| RRIRMRPPRLPRPRPRPCLYPRP | -0.331 |
| RRIRYRPPRLPRPRPRPNYVPRP | -0.466 |
| RRIRGRPPRLPRPRPRPHATPRP | 1.35 |
| RRIRKRPPRLPRPRPRPVLFPRP | 0.327 |
| RRIRQRPPRLPRPRPRPTQQPRP | 0.0196 |
| RRIRTRPPRLPRPRPRPMWTPRP | -0.00193 |
| RRIRQRPPRLPRPRPRPSDYPRP | -0.0346 |
| RRIRMRPPRLPRPRPRPWVLPRP | 0.0155 |
| RRIRKRPPRLPRPRPRPCPTPRP | 0.0658 |
| RRIRARPPRLPRPRPRPRCIPRP | 0.459 |
| RRIRIRPPRLPRPRPRPVIIPRP | -0.146 |
| RRIRSRPPRLPRPRPRPAPDPRP | 0.369 |
| RRIRFRPPRLPRPRPRPNCAPRP | 0.154 |
| RRIRSRPPRLPRPRPRPCWKPRP | -0.169 |
| RRIRCRPPRLPRPRPRPWAKPRP | -0.234 |
| RRIRWRPPRLPRPRPRPTVSPRP | -0.156 |
| RRIRRRPPRLPRPRPRPAFAPRP | 0.456 |
